Biological target: HSC70 (UniProt P11142)
Test: anti-FLAG co-IP, Western blot
Conditions: reference: wild type; sites T290

- binding against the reference: weaker
Substance: PD-L1 (from UniProt Q9NZQ7) T290A

— paper PMC10679996
